Measured values published in PMC6624373.

Target: lamin A R7/8E double mutant (human) (UniProt P02545)
Assay: rotary metal shadowing EM; in vitro assembly assay: after dialysis into 25 mM MES, 150 mM NaCl, 1 mM DTT, 1 mM EGTA pH 6.5, 30% glycerol; dimers scored as singular or incorporated into head-to-tail oligomers

stoichiometry N: 2
Substance: lamin A R7/8E double mutant (from UniProt P02545 1-646) (natural protein)
